Laboratory results: patent publication US8524444

T1: polypeptide 4.6, FITC(Aha)STPVSSANMK(DEAC), unglycosylated
T1 chain: STPVSSANMK

T2: polypeptide 4.8, FITC(Aha)STPVSRANMK(DEAC), unglycosylated
T2 chain: STPVSRANMK

T3: polypeptide 4.1, FITC(Aha)STPVSSANMK (wt CK2-derived peptide)
T3 chain: STPVSSANMK

T4: polypeptide 4.2, FITC(Aha)STPFSSANMK (V→F)
T4 chain: STPFSSANMK

T5: polypeptide 4.3, FITC(Aha)STPRSSANMK (V→R)
T5 chain: STPRSSANMK

T6: polypeptide 4.4, FITC(Aha)STPVSFANMK (S→F)
T6 chain: STPVSFANMK

T7: polypeptide 4.5, FITC(Aha)STPVSRANMK (S→R)
T7 chain: STPVSRANMK

B1: Proteinase K (protein)
chain: AAQTNAPWGLARISSTSPGTSTYYYDESAGQGSCVYVIDTGIEASHPEFEGRAQMVKTYYYSSRDGNGHGTHCAGTVGSRTYGVAKKTQLFGVKVLDDNGSGQYSTIIAGMDFVASDKNNRNCPKGVVASLSLGGGYSSSVNSAAARLQSSGVMVAVAAGNNNADARNYSPASEPSVCTVGASDRYDRRSSFSNYGSVLDIFGPGTSILSTWIGGSTRSISGTSMATPHVAGLAAYLMTLGKTTAASACRYIADTANKGDLSNIPFGTVNLLAYNNYQA
B2: O-Linked N-acetylglucosaminyltransferase (OGT) (protein)
chain: MHYKEAIRISPTFADAYSNMGNTLKEMQDVQGALQCYTRAIQINPAFADAHSNLASIHKDSGNIPEAIASYRTALKLKPDFPDAYCNLAHCLQIVCDWTDYDERMKKLVSIVADQLEKNRLPSVHPHHSMLYPLSHGFRKAIAERHGNLCLDKINVLHKPPYEHPKDLKLSDGRLRVGYVSSDFGNHPTSHLMQSIPGMHNPDKFEVFCYALSPDDGTNFRVKVMAEANHFIDLSQIPCNGKAADRIHQDGIHILVNMNGYTKGARNELFALRPAPIQAMWLGYPGTSGALFMDYIITDQETSPAEVAEQYSEKLAYMPHTFFIGDHANMFPHLKKKAVIDFKSNGHIYDNRIVLNGIDLKAFLDSLPDVKIVKMKCPDGGDNADSSNTALNMPVIPMNTIAEAVIEMINRGQIQITINGFSISNGLATTQINNKAATGEEVPRTIIVTTRSQYGLPEDAIVYCNFNQLYKIDPSTLQMWANILKRVPNSVLWLLRFPAVGEPNIQQYAQNMGLPQNRIIFSPVAPKEEHVRRGQLADVCLDTPLCNGHTTGMDVLWAGTPMVTMPGETLASRVAASQLTCLGCLELIAKNRQEYEDIAVKLGTDLEYLKKVRGKVWKQRISSPLFNTKQYTMELERLYLQMWEHYAAGNKPDHMIKPVEVTESA

Experiments:
[1] = target: T1, polypeptide 4.6, …
[2] = target: T2, polypeptide 4.8, …
[3] = target: T3, polypeptide 4.1, FITC(Aha)STPVSSANMK …
[4] = target: T4, polypeptide 4.2, FITC(Aha)STPFSSANMK …
[5] = target: T5, polypeptide 4.3, FITC(Aha)STPRSSANMK …
[6] = target: T6, polypeptide 4.4, FITC(Aha)STPVSFANMK …
[7] = target: T7, polypeptide 4.5, FITC(Aha)STPVSRANMK …

Protein	rate of proteolysis, unglycosylated against glycosylated polypeptide [1]	rate of proteolysis, unglycosylated against glycosylated polypeptide [2]	Relative rate of glycosylation [3]	Relative rate of glycosylation [4]	Relative rate of glycosylation [5]	Relative rate of glycosylation [6]	Relative rate of glycosylation [7]
B1	˜100-500 times faster	˜100-500 times faster	–	–	–	–	–
B2	–	–	1	0.15	0	0.4	0.7
